Values of other authors in PMC7249735.

System: RGNNV coat protein (RGNNV-CP), MBP fusion (red-spotted grouper nervous necrosis virus (RGNNV))
Conditions: PBS (137 mM NaCl, 2.7 mM KCl, 10 mM Na2HPO4, 1.8 mM KH2PO4, pH 7.4); ELASA 30 min at 4 C after 3% BSA block; sandwich capture in PBS, temperature not stated

In the case of “TGTGTGTCTATTGTCTGTGGTTCATGTCAAGCTTATTTTCCACACACGGT [A10]”, the Kd is given as 4 nM.
